Source: US20040071656A1, “Modulation of heat-shock-protein-based immunotherapies” (priority 2001, published 2004)
No end group written: not given here. *: point of attachment. Biotin = O=C1N[C@H]2[C@H](CS[C@H]2CCCCC(=O)*)N1

Biological target: Recombinant human His6-tagged Hsp70 (human), P0DMV8
Assay: ELISA with streptavidin-peroxidase after gel filtration of Hsp70 loaded with biotinylated peptide C (ADP)

Chain of Recombinant human His6-tagged Hsp70 (human), P0DMV8 (P0DMV8 2-641): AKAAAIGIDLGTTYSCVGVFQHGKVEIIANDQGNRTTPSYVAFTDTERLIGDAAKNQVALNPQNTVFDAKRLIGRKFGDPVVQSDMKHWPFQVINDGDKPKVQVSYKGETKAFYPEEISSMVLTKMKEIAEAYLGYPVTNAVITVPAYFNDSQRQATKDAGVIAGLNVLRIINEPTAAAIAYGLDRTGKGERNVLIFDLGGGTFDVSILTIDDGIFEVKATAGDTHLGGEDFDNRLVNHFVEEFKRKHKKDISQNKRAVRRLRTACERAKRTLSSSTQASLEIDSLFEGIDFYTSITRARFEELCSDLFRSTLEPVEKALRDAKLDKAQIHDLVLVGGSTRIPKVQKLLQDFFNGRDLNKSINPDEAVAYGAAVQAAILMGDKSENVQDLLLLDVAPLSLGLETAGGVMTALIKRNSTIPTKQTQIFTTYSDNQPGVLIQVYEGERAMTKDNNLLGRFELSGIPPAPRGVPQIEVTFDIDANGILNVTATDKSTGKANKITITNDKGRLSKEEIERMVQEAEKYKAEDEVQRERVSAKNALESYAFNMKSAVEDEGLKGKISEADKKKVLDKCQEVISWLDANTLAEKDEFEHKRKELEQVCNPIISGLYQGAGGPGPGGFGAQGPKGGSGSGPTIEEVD

Q: How did the yield of Hsp70 complex formation turn out when Biotin-GCEVFGLGWRSYKH [Biotinylated peptide C (biotin-…)] was run?
A: Its yield of Hsp70 complex formation is 20 to 30%.
